What was measured:
[1] = target: genome-edited CXCL12-HiBiT (human (endogenous in HEK293)) (UniProt P48061); test: split reporter (BiFC, NanoBiT); NLuc complementation luminescence: live HEK293 cells expressing genome-edited CXCL12-HiBiT incubated with increasing concentrations of purified LgBiT; with surfen (10 uM)
[2] = target: genome-edited CXCL12-HiBiT (human (endogenous in HEK293)) (UniProt P48061); test: split reporter (BiFC, NanoBiT); NLuc complementation luminescence: supernatants from HEK293 cells expressing genome-edited CXCL12-HiBiT incubated with increasing concentrations of purified LgBiT; with surfen (10 uM)
[3] = target: genome-edited CXCL12-HiBiT (human (endogenous in HEK293)) (UniProt P48061); test: split reporter (BiFC, NanoBiT); NLuc complementation luminescence: live HEK293 cells expressing genome-edited CXCL12-HiBiT incubated with increasing concentrations of purified LgBiT; vehicle
[4] = target: genome-edited CXCL12-HiBiT (human (endogenous in HEK293)) (UniProt P48061); test: split reporter (BiFC, NanoBiT); NLuc complementation luminescence: supernatants from HEK293 cells expressing genome-edited CXCL12-HiBiT incubated with increasing concentrations of purified LgBiT; with heparan sulfate (30 ug/mL)
purified HiBiT = test: split reporter (BiFC, NanoBiT); NLuc complementation luminescence: purified HiBiT (1 nM) incubated with increasing concentrations of purified LgBiT; vehicle
[5] = target: genome-edited CXCL12-HiBiT (human (endogenous in HEK293)) (UniProt P48061); test: split reporter (BiFC, NanoBiT); NLuc complementation luminescence: supernatants from HEK293 cells expressing genome-edited CXCL12-HiBiT incubated with increasing concentrations of purified LgBiT; vehicle

Kd [1]: 5.93 nM
Kd [2]: 7.46 nM
Kd [3]: 11.6 nM
Kd [4]: 16.1 nM
Kd (purified HiBiT): 7.15 nM
Kd [5]: 17.5 nM
Substance: LgBiT (18 kDa NLuc fragment)

Source: publication PMC7809502
